Our source for the protein production values is a protein production outcome set (Wang et al. 2014).
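Also: failed if final PepcDB status was selected cloned or expressed and not failed if soluble or beyond.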

This series is described as follows: label from the status in PepcDB records.
For the sequence “MIKYILGIVIFIAIVLVAITIGANNDQIITFNYIVAESQFQLSSLVAILFGLGLILGWLITAFFYIKLKLKNMALARQVKRQTLQINELTTTRDKVV”, the protein production result was “failed”. In the case of “MIKYLIEKEFKQLLRNSFLPRLIFIFPCMIMLLMPWAANLEIKNIRMNIIDNDHSVISRRLVDKITASTYFQTTALPDSYEKGMEAIEAGTADLLLEIPRGFEKDWVNGGAANVLLAVNAVNGTKGGLGSSYLSAIVNDYGEELRTESGTTSFSADGNLPRIDILTQNLFNARLDYKLFMVPALMVMLLTMLCGFLPALNIVGEKEAGTIEQINVTPVGKFTFILAKLIPYWLIGFVVLTLCFVLAWTLYGIFPVGHFWVIYCFSIVFVLAVSGLGLVISNHSATMQQAMFVMWFCMLILILMSGLFTPIRSMPEWAQWITMLNPLKYFMQVMRMVYLKGSGFIDLLPQLGALLAFALLFNVWAVKSYRKSG”, the protein production result was “failed”.

On to “MILEDLNQLPAAEASHTFMQCSASAWVKKMVTARPFSSELAIKKAADDAWQGLTEQDYFEAFEGHPKIGDVSSLRAKYANTKELAGNEQGLVKEANDDVLEVLSQGNSDYEKKFGFIFIVCATGKSAKQMSDLLQARLPNNKTQELVNAAEEQRKIFQLRIDKALAEGLEHHHHHH”, for which the protein production entry is reported as “failed”. Turning to “MILGIDVGGTSVKFGLVTPEGEIQNATRFMTADWVNGIGFVESMKLEIGNFLKQYPIVKGVGIGWPGLVSLDRTKVILLPNIPSVVNVPIVEILRSEFPHIHFKIENDAKCAALGEYYFGENKRMQTFILLALGTGVGSGVMMNGKLFIGGRGNGTEVGHMLTTRGKSLENQVGINHLIAYTHEQLALDVAKKSSLHTIAELSPKVIADHAAQGDALALAVWADIGTIIGESLVNIVRVMDLNNILLGGGISGAFDYFVPNLKKAMLEHLPTYYTDDMYIGKATLENDAGLLGAAGLIMEAI”, the protein production entry was “not failed”.

On to “MILIRNVRLVDARGERGPADVLIGEGRILSLEGGEAKQVVDGTGCFLAPGFLDLHAHLREPGEEVKEDLFSGLLAAVRGGYTDLVSMPNTKPPVDTPEAVRALKEKAKALGLARLHPAAALTEKQEGKTLTPAGLLREAGAVLLTDDGRTNEDAGVLAAGLLMAAPLGLPVAVHAEDAGLRRNGVMNDGPLADLLGLPGNPPEAEAARIARDLEVLRYALRRSPATPRLHVQHLSTKRGLELVREAKRAGLPVTAEATPHHLTLTEEALRTFDPLFKVAPPLRGEEDREALLEGLLDGTLDAIATDHAPHTLAEKEKDLLRAPFGIPSLEVAFPLLYTELHLKRGFPLQRLVELFTDGPRRVLGLPPLHLEEGAEASLVLLSPKERPVDPSAFASKARYSPWAGWVLGGWPVLTLVAGRIVHEALK”, for which the protein production entry is listed as “not failed”. Then “MILKKEYSYESLRKKGAKKKKNFLCLQKYAMIYLVIRRYPYMSFGQKFKHFLAPLDEDDILEVEQDAEEEDAQTISQYEQQRSRMNKLPNDTKMVLFEPRSFDEADEIARRLKENKAAVVNLHKLQREYAQRTIDFLTGVIFALDGSIQKIGHNVILCTPNNVPVQGQITLDSGEDE”, with “failed”; and “MILLCFPGSEQGIGMHQFEFLGQLVLIGALAIVNILVFQKIRIPPVIGLIFTGIMLGPTGFHVIRNSGLISTLAEMGVVLLLFTIGLEFSADDLKKLRKIVLFGGTAQILLTGLVIAMFSYWLMDAIGKSVGSKEALVLGFSFSVSSTALCLKILSDRGELGFDHGKIALGILIFQDMAIVPLMFGFSFLTRGSSMPLESSFEEIALLLLFAIGMFGGFRLLMPKIVRIITELHAGEVLVLGALVLCFGAAWLASLIGLSLALGAFMAGMVIASTDGSHRISRTIDPFREAMTSIFFVSVGLLLDVNMIELPWLIAIALVVLVVKGLIMTGILMALGFSLRVSLMSGMVLAQIGEFSFVLAGTAKDAGLLDQHMFQSMLAVIVVTMIVTPALISAAPKFAAQVAPALGFMPLASKPEPKQPARAAAGPIVCRGEIHAAIIGFGLIGRNIAAVMNATNLNYTVLDTDRKTVKTMRRQGEPLFYGDCTERKSLLRIGVDHSRAVVICIPEIDAAIQCIRLVREINPGAFIIVRSRSLESTNRFYRAGADAAVTELFETSIQMFSELLKHFRVEPETILAQQEIIRREGGNIFRELVTETDGSGDDPAKKSQNGAGFVTSET”, with “failed”; and “MILLIMNTDDFQFFIRVADCGSLSKAAQEANISVSVASQRIQRLESTLKLRLFYRTTRKITLTDEGRKLLDFGRYWLDDFITLKDTLTARDKPLTGNLRVTTSATFGIKILTKVIANFALLHPTLNIYLDLNDQNIDLIEHGMDLAIRIGKLNDSSLVAKPLMTNHRLICAAPSYLNQYGMPHSIEDLQQHRCILQQHQNGLTDHWQLIDQKRTVVDVHLKAYFTTNSGEAIRQAALQGLGISNHSRWHVADDLEQGHLIELLPEYQIEPTTIYAVFPNRQFRQPKTELFLSYLQNYFKHEYPWNIRKN”, with “failed”. Then “MILMHPKGLIKRDDIIYLSIFIVVFLIALRNYMISPPYTLGDTTILPSTNPGLYTPSATIQYYLSLLIGENNLIKTLNFLAFIIAPISIYFTLGRKGDFFKRLILPLIFTLNPISISIFYDGNGEGILLVYSLQPLVYYLTYKMLYEVKNRLKYLIYLSIVEVVGQIFFFQMFLFSLFFQLPFILLSIKERKYLFLVYPILADLLGFLSELSWEVYLYIGVVPSVLVSPSNTLVRLGLAYYSTIVSALLFAIVITTAFIYRNKYALATLTSVGILLVIYAILQNFRFDIPVISALLAAITTFQTKVYLLSFGLLDLSLFYLKRTREFIIPLLSLLLIVLLVNTGGLQATTYSIFSFKPQPMPSWYYELYDYLSQNNPNNVYSLATQYQYLQYLPGFSGFIYDTSFIHNLTNPFYGMKYLISTSQMNYTGLRLVKTFGPVLVYYNENFTGLVHYLNGSPVSNYSISDMEIRIYDGNPPFVVSLPYSEYWTSAENYNGFLELTTNISQNSLTSLVHELFFVSLFFLILPFILLILEKTPMKTLIVGR”, with “failed”. Turning to “MILNIVTIVSNFIFIALFYQLFVDLFDWSKMIKMSPQNISKLKVFILLISIVGGYVVSHFLLEVIQLCQSIFWALQ”, the protein production entry was “failed”. In the case of “MILTPLALTPDHDIPGPVLTELTALYASHRAFHALSGDFPDPEDIRPEQVATALADELARPGAEVLLARDAGRLVGVAVTLARHPDPSDPDPWIGLLMVDAGLTRQGHGSRLVSLVEDRFRAAGRTAVRLAVLDGNTDALSFWTALGYRVLDHRRDLGAERPCTVLRRELASDKPRTPRRAARVAVLDPEGAVFLLRYDNVEVGVHWAMPGGGLEADENPREGALREVREETGWTDLEPGPLLCTWEHDFTHLSVGPVRQYEHIYVAQGPRREPTGPHLAAAHAADGILTWRWWSRAELAEAPEPLWPPDLALLLETFGGREG”, the protein production entry is recorded as “failed”. Turning to “MILVFLDNMASIKDLNLIDEINDSSNLKLINDRLKLLFWTKNPEITDEENKKKYLDFLNEYWDTLRAYGAGDLELFPDKINYLTLILAANSKNHNIYIKKLAEKYAEKIPIEDGDSKINIWDFIDVAANSRNNDLHLERMILEGDTVLLNQKNQSIYNFEKIRLKLKNYVEKVRNAEMPKEIKDLLVKKSEEAFEGINIGYNIESGIKVSTKEYSGEIPEDWHPPCMREILNDILSGGSPSHYARRSFVVYRFVSQFDPNLRPIEEGIITNRSAQDIATEEQIERFLDEIINIFKSVGDFDVEKTKYYISHNIGYKVANHITHCEYCKNWRDDGGKGLGYYCRPDSTCSRKDIIHPLDYLCHNINRHVKKSELEHHHHHH”, the protein production result is recorded as “failed”. “MIMARTSNIFARVEPEVKEQAEQVLEQLGIPMSSAVSMFLKQVVLQRGIPFEMKLPKDTPPSYSSLTKEQFNAEIEKGMLDIEAGRTYPMKSVEEEMKRDYGLLEHHHHHH”: the protein production result is “not failed”.

With “MIMASSAAASISMITLRNLSRNHQSHQSTFLGFSRSFHNQRISSNSPGLSTRARSTTSSTGGFFRTICSSSSNDYSRPTKIQELNVYEFNEGDRNSPAVLKLGKKPDQLCLGDLVPFTNKLYTGDLTKRIGITAGLCVLIQHVPEKKGDRFEASYSFYFGDYGHISVQGPYLTYEDTFLAITGGSGVFEGAYGQVKLRQLVYPTKLFYTFYLKGVAADLPVELTGKHVEPSKEVKPAAEAQATQPGATIANFTN”, the protein production entry is “failed”. On to “MIMHIPKSTYYHKWFIGATLVVPVLPLAAQTSPNLVFIMADQYRGDALGCLGKEPVKTPCLDHLASEGVLFTNAVSSYPVSSPARAMLMTGMYPLHNKVTGNCNSQTAPYGVELPQEARCWSDVLKDMNYRTGYIGKWHLDSPYKPYVDTYNNRGKVAWNEWCPPERRHGFEYWTAYGTYDYHLKPMYWDTTAPRDSFYYVNQWGPAYEADKAIEYIQTQKENKQPFALVVSMNPPHTGYELVPDKYKALYKDIDVEALCAHRPDIPAKGTEMGNYFRNNIRNYYACITGVDEQVGRIIETLKSNGLFENTIIVFTSDHGICMGAHNNAGKDIFYEEAMRIPMIISWPAKIKPRKDDHLMIAFADLYPSLLSLMGFRKEIPETVQTFDLSRHILGKSKKEVVQPYYYVQFDNHATGYRGLRTSTHTFAVHATNGKIDETVLFDRTKDPYQMDNIAGQSPRLVRQFNKQLKAWLLHTNDSFAHYLETVTKLEHHHHHH”, for which the protein production result is “not failed”. Take “MIMKISMAMCKQPLPPSPTLDFPPARFGPNMLTLNPYGPKDKVVVIMGATGTGKSRLSVDIATRFRAEIINSDKIQVHQGLDIVTNKITSEESCGVPHHLLGVLPPEADLTAANYCHMANLSIESVLNRGKLPIIVGGSNSYVEALVDDKENKFRSRYDCCFLWVDVALPVLHGFVSERVDKMVESGMVEEVREFFDFSNSDYSRGIKKAIGFPEFDRFFRNEQFLNVEDREELLSKVLEEIKRNTFELACRQREKIERLRKVKKWSIQRVDATPVFTKRRSKMDANVAWERLVAGPSTDTVSRFLLDIASRRPLVEASTAVAAAMERELSRCLVA”: the protein production result is listed as “failed”. Turning to “MIMSVCLPWLARCRRFLIVSLAFAMLLLGIWGTLPFSLSDHGTAIAALEDDRYDGNIFVVYAGNGSLVPPRLNLRESFERKLPVILVYYLDDSKDCKQYAFIVSRMQEFYGRVASIIPVSVDSIPDQKRFRRDEPGYYYSGGVPQTVILDKSGKKIFDAQGALKFEVVDDVLRDLFDLLPRSESMELKQRTYNEFNSELVD”, the protein production entry was “failed”. Turning to “MINKKTTSENRRILQIAVPSIISNITVPLLGLIDVTIVGHLGSPAYIGAIAVGGMLFNIIYWIFGFLRMGTSGMTSQAYGQHDLNEINRLLIRSVGVGLFIALCLLILQYPILNAAFTLIQTTEEVKQLATTYFYICIWGAPAMLGLYGFAGWFIGMQNSRFPMYIAITQNIVNIIASLSFVYLLDMKVAGVAAGTLIAQYAGFFMAILLYMRYYSTLRKRIVWKDIIQKQAMYRFFRVNRDIFFRTLCLVIVTMFFTSAGAAQGEVVLAVNTLLMQLFTLFSYIMDGFAYAGEALAGRYIGARNQTALRNTVNHLFYWGIGLSAAFTLLYAIGGKEFLGLLTNDVSVISSSDTYFYWALAIPLTGFSAFLWDGVFIGATATRQMLYSMLVASVSFFMIYYAFHNLLGNHALWLAFITYLSLRGIVQTFIGREIVKKAI”, the protein production entry is “failed”. Then “MINKTLTVTLTSIAALAGLSGLANAQEYTNSTHTTSQQSNTYNSQVEQETNLGLTNKDIVKVKDGDTLYQIALSHHLSLEQLYNFNPGVTALIHPGDLIAVSEKGAAKLENKEINYAQTYAETTAFNQSDVVAQSVSASTTNVTGYNIVPTSAPTNTMHDSYHSSVNTPVSYQHVTTANQGNRYSFGNCTYYAFDRRQQLGRSIGSYWGNANNWAYSAKNAGLTVDNRPEVGAIFQTTAGYYGHVGVVEHVNQDGSVYVSEMNWNGHYNRVTNRTITNTSSYNFIH”, with “failed”; and “MINKVLLEGQRITRSPQVKQHACGASFFLVVLLLIGGLLYSTISWMWDEQRLPLSKLVLQGDLHYVSALDVQRVLARLDHIGTFMSQDINVLQESVQSIPWVSHASIRKQWPDTIKVYLTEYQVEALWNANALLDKNGTVFYGDIARVNGEYVKLYGPDGTAPQVLKAWRDYNPKFAQLGLNISSLVLNDRRAWQIILDNGIRLELGKESLEERISRFFLLYKQLGNKAEQVSYIDLRYDTGAAVGWFPEQELTQEKNDD”, with “failed”.
